According to PMC4534193, “Binding of the Lactococcal Drug Dependent Transcriptional Regulator LmrR to Its Ligands and Responsive Promoter Regions” (PLoS ONE, 2015):

Key:
[1] = target: T1, LmrR-Strep (Lactococcus lactis) (UniProt A2RI36); assay: MST; conditions: MST: 20 mM Tris-HCl pH 8.0, 1 mM EDTA, 50 nM Cy5-DNA, 30 min incubation at 30 C; 30% LED, 40% laser power (30% laser for PlmrR); Hill fit
T1 sequence: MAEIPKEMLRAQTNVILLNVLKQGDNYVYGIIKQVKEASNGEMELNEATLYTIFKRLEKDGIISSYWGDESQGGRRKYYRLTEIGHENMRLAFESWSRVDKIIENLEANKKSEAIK

[2] = test system: LmrR-Strep (Lactococcus lactis); assay: MST; conditions: apparent Kd, MST: 20 mM Tris-HCl pH 8.0, 1 mM EDTA, 50 nM Cy5-DNA, 30 min incubation at 30 C, 30% LED, 40% laser power (30% laser for PlmrR), Hill fit

## ACTACTTTACATTAAATTGAATTTTCAATTTCATTTTACTTCAAAATAATTTCAATAAATTTTTTGAGAAGATAATTATAACATTATTTTTTTTAGTAAACAAGCATTAATTGTTAATGCTGTTAAAGATTACAATAGTTAGTTTCATAAATGGTAAACTAACAAAAATATTGTAACGCTTTTTAAAGTTTAAGTCAACGATTTACGACGTTATTTGTATCTTCTTATGTTTTTATAAATTTAGAATTTAAAGTAAGGAATGAATCG (double strand) [PlmrCD no PadR (half of PadR motif deleted)]
[1]
  binding: no binding

## CTCCTTGTTTTAGGACATTGAGCAAAATTACATTGGTTTGGGCTCGTAACATTTCTTTTGGTATTTCTGCCATTCTTTTTCCTTTCTATCATTTTAAACAAAGTATATTATACTTCACATTACTATGTAAGTCAAGGTACTTAAACTATTTATATAATATTTTATTTTTGACGACTTTCTACTATATAAGATAAGAAAAAATCATCTCCG (double strand) [PlmrR (lmrR promoter/operator region)]
[1]
  Kd: 1.4 µM

## PlmrCD (lmrCD promoter/operator region)
[2]; 50 uM riboflavin
  Kd: 0.195 µM
[2]; no riboflavin, Hill coefficient 1.78 +/- 0.17
  Kd: 0.0821 µM

## PlmrCD -62bp
[2]; no riboflavin
  Kd: 0.062 µM

## PlmrR (lmrR promoter/operator region)
[2]; 50 uM riboflavin, 30% laser power
  Kd: 5.12 µM
[2]; no riboflavin, Hill coefficient 2.43 +/- 0.19, 30% laser power
  Kd: 1.4 µM

## TTCTAGAGTTAAATAATGTAAACTACTTTACATTAAATTGAATTTTCAATTTCATTTTACTTCAAAATAATTTCAATAAATTTTTTGAGAAGATAATTATAACATTATTTTTTTTAGTAAACAAGCATTAATTGTTAATGCTGTTAAAGATTACAATAGTTAGTTTCATAAATGGTAAACTAACAAAAATATTGTAACGCTTTTTAAAGTTTAAGTCAACGATTTACGACGTTATTTGTATCTTCTTATGTTTTTATAAATTTAGAATTTAAAGTAAGGAATGAATCG (double strand) [PlmrCD -62bp]
[1]
  Kd: 0.062 µM
